Laboratory results from the supplement of paper PMC9732359.
± gives the uncertainty stated by the source.

Assay: protein stability index of a GFP-peptide fusion (yeast GPS) (PSI 1-4); higher = more stable; sorted into four equal gates, so the index is relative within each strain
Outline: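 Tiled 17-residue yeast protein peptides were fused downstream of GFP in a plasmid that also expresses Cherry, and the pooled library was carried in yeast. Mid-log cultures in leucine-free medium were sorted into four equal gates by GFP/Cherry fluorescence ratio, and plasmids from each gate were PCR-amplified and Illumina-sequenced, with reads assigned to strains by barcodes. The protein stability index for each peptide was each gate's read frequency times its gate number, summed.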

Sequence	protein stability index (doa10∆)	protein stability index (pdr5∆)	protein stability index (san1∆)	protein stability index (ubr1∆)
DLALKMGVPIYGIVAMA [FAS2]	1.85 ± 0.27	1.17 ± 0.093	1.36 ± 0.28	1.18 ± 0.078
FLFHAISGREGLVDTAV [RPO31]	–	2.89 ± 0.28	–	2.55 ± 0.13
NNKKVVGTAIDSILNYA [ECM29]	2.4 ± 0.21	2.75 ± 0.12	–	3.06 ± 0.083
PKKFGGKGARSRFQKSY [RPS16A]	3.22 ± 0.12	3.31 ± 0.11	3.31 ± 0.13	2.93 ± 0.1
SFILYYRRALQSSESFD [YML103C/NUP188]	1.79 ± 0.055	2.11 ± 0.067	1.98 ± 0.072	2.27 ± 0.052
KRAKEFITTLLKSLYSF [SIN4]	2.19 ± 0.039	1.94 ± 0.05	1.83 ± 0.07	1.87 ± 0.032
TKFSKLIGRPPLLVPGM [FAS1]	1.16 ± 0.071	2 ± 0.064	1.91 ± 0.078	1.65 ± 0.041
APKWYPSEDVAALKKTR [RPL6A]	2.5 ± 0.07	2.97 ± 0.063	2.75 ± 0.049	2.53 ± 0.051
ADRNDDDEGSFAQENSE [SRB6]	3.08 ± 0.11	3.22 ± 0.13	2.6 ± 0.17	3.22 ± 0.12
DKFFNEVNKSELYLTAE [SIR3]	3.43 ± 0.13	3.55 ± 0.13	3.23 ± 0.085	3.58 ± 0.12
LGKKGVPYVVTHDGRTI [RPS4A]	2.43 ± 0.068	2.52 ± 0.092	1.66 ± 0.098	2.13 ± 0.054
ITATLVGTVRCEEEKKT [CSL4]	1.54 ± 0.14	1.9 ± 0.25	1.67 ± 0.16	1.58 ± 0.079
EKINRMIIFLKNYDATD [CSI1]	2.52 ± 0.045	2.34 ± 0.044	2.38 ± 0.046	2.26 ± 0.028
TGLCSFDYSVILNSIPA [YJL039C/NUP192]	1.6 ± 0.052	1.51 ± 0.059	1.49 ± 0.095	1.28 ± 0.045
DHINGSGKRKPTKAAQR [GAL11]	2.3 ± 0.14	2.81 ± 0.094	3.1 ± 0.16	3.17 ± 0.1
QLKIQNRQAAASVVPSA [RPL12A]	1.82 ± 0.035	2.48 ± 0.042	2.05 ± 0.051	2.08 ± 0.03
PVLFNRQPSLHKMSMMA [RPO21]	2.54 ± 0.11	2.95 ± 0.093	3.05 ± 0.23	2.23 ± 0.16
RKRPVPKGATYGKPTNQ [RPL15A]	–	3.29 ± 0.19	3.58 ± 0.19	3.45 ± 0.14
QYTKDEQFYTKDIIDPK [RPN2]	3.53 ± 0.13	3.24 ± 0.094	2.78 ± 0.15	3.29 ± 0.065
ESNDRINKIVEILTNQQ [YGR119C/NUP57]	–	2.77 ± 0.23	2.57 ± 0.13	2.23 ± 0.085
ILTIIEEYKKSLYAYCH [GRR1]	2.38 ± 0.28	1.33 ± 0.21	2.27 ± 0.26	3.38 ± 0.24

Sequence	protein stability index (doa10∆)	protein stability index (pdr5∆)	protein stability index (san1∆)	protein stability index (ubr1∆)
KYCEIMGDNSQLDFTEF [SNF2]	3.16 ± 0.085	3.2 ± 0.11	2.87 ± 0.1	3.29 ± 0.073
LLVIGGNQRKILQYSRT [YJR042W/NUP85]	1.86 ± 0.091	2.27 ± 0.096	1.46 ± 0.14	1.4 ± 0.072
ATEVTPQEPKHIQEEEE [RPC19]	3.24 ± 0.081	3.23 ± 0.09	3.14 ± 0.056	3.37 ± 0.079
HWMGSSVSGSPRPSYSS [YMR129W/POM152]	2.98 ± 0.088	3.11 ± 0.089	2.74 ± 0.07	2.87 ± 0.084
DMVKLDINPPLVFILAV [RRP42]	2.69 ± 0.068	2.3 ± 0.043	2.2 ± 0.07	2.19 ± 0.035
RQFVSNVRSVIRSSRSR [RPP1]	3.08 ± 0.063	3.08 ± 0.071	2.91 ± 0.064	3.09 ± 0.06
PASNILRRTTQRVFDET [YDL116W/NUP84]	2.66 ± 0.13	2.66 ± 0.061	2.77 ± 0.13	2.62 ± 0.1
NNIKNGTNNISQHGQGN [YDL088C/ASM4]	2.93 ± 0.046	2.87 ± 0.033	3.05 ± 0.034	3.06 ± 0.021
VIIKGFKTYRNETIIDN [SMC3]	2.58 ± 0.22	2.63 ± 0.27	2.94 ± 0.17	–
VQQQQQQQLRNQIQRQQ [SNF5]	2.16 ± 0.071	2.5 ± 0.12	2.07 ± 0.2	2.06 ± 0.074
LVKALEDIMVHYDNTTR [RPO21]	1.46 ± 0.061	1.91 ± 0.062	1.32 ± 0.086	1.68 ± 0.072
WKNLVLKLSQAFGSSAT [YJR042W/NUP85]	2.58 ± 0.055	1.95 ± 0.053	2.22 ± 0.055	1.93 ± 0.044
TAASVFKELCYENKDNL [PRE3]	2.67 ± 0.051	2.45 ± 0.047	2.38 ± 0.058	2.17 ± 0.054
SYIGTIIVKDKSNDSEG [POP1]	1.4 ± 0.1	1.44 ± 0.052	1.45 ± 0.093	1.35 ± 0.093
NRQAAASVVPSASSLVI [RPL12A]	1.73 ± 0.03	2.17 ± 0.038	1.98 ± 0.049	1.83 ± 0.032
EIGITQQRIVSAYEASM [RRP4]	3.04 ± 0.098	2.98 ± 0.081	2.75 ± 0.12	2.85 ± 0.065
YAIIINYTKDNEYYPMC [YCS4]	1.36 ± 0.071	1.44 ± 0.092	1.61 ± 0.13	1.51 ± 0.082
TIWCVCDSYLDADKELS [BRR2]	2.39 ± 0.059	2.44 ± 0.07	2.92 ± 0.057	2.75 ± 0.072
TTIDSLNAELESKLIPQ [SMC3]	3.06 ± 0.12	3.03 ± 0.085	2.46 ± 0.14	3.1 ± 0.066
EYEELKEKIEKLSKSAT [SMC1]	3.33 ± 0.12	3.09 ± 0.22	2.98 ± 0.079	3.08 ± 0.073
KSSGSSMATPTHSDSHE [ROX3]	3.08 ± 0.16	2.97 ± 0.1	2.82 ± 0.064	2.52 ± 0.091
